B1: GLTSCR2 (parent)
chain: LARRRRRRQARREAEADKPRRLGR

Variants of: B1
Assay: protein stability index of a GFP-peptide fusion (GPS, HEK-293T) (PSI 1-6); higher = more stable
Details: c terminus: a fixed tail appended
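Also: lentivirally expressed fusions sorted by FACS into six bins by GFP to DsRed ratio, PSI derived from sequencing read proportions per bin multiplied by bin number.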

Protein stability index, by site and new letter:
G23: W 4.46; T 5.05; S 5.18; R 4.57; K 3.76; L 4.18; A 4.34; M 4.17; Q 4.51
K18: L 5.11; I 4.34; D 4.78; W 3.88; N 4.96; V 5.01; Q 4.97; S 4.74; P 5.41; M 5.14; H 4.98
E15: V 4.64; G 4.43; D 4.55; A 4.78; R 3.99; F 4.36; L 4.16; I 4.63; M 4.72; N 5.4; Q 4.52; W 3.87; K 3.6; H 4.55
D17: N 4.32; R 4.82; K 4.99; P 4.33; A 4.3; C 4.07; Y 4.88; T 4.66; E 5.31; H 4.81; L 4.52; I 3.98; G 4.24
R20: P 5.45; N 4.75; G 4.91; W 4.41; Q 4.6; V 4.65; T 4.82; C 4.45; S 5.26; A 4.25; L 4.64; D 4.11; F 4.04; K 4.64; E 4.52
R4: L 4.59; Q 4.18; W 3.11; Y 4.16; H 4.35; P 4.92; F 3.75; A 4.39; K 3.13; V 3.97
A16: R 3.96; D 4.82; I 4.22; G 4.09; Y 4.61; S 3.77; N 4.91; H 5.25; M 4.97; F 4.4; T 4.76; E 4.8; Q 4.89; P 4.61; K 4.32
L22: G 4.3; W 4.62; C 4.53; T 4.74; M 4.74; A 4.74; P 4.15; Y 4.35; D 5.31; F 3.87
R7: W 4.63; F 4.28; E 4.93; T 4.76; G 4.71; S 4.66; L 4.76; M 5.22; N 4.83; Q 4.19; I 4.41; Y 4.64; H 4.73; V 4.6; C 4.83
L1: I 4.9; M 4.75; T 5.33; N 4.89; A 5.29; G 5.13; Q 4.51; H 5.28; C 5.39; Y 4.28; S 5.66; E 5.22; D 5.28
R5: T 4.15; Q 4.33; P 5.1; I 3.79; D 4.52; K 4.54; A 4.69; L 3.81; C 4.21; G 4.36; Y 4.45; E 5.13
Q9: V 4.22; W 3.71; C 4.4; H 4.73; D 4.44; N 4.47; Y 4.33; G 4.46; L 4.66; S 4.57; K 4.33; P 4.85; I 4.75; T 5.12; M 3.79; E 4.38
R8: Q 4.23; T 4.21; K 4.3; A 4.98; W 4.48; M 4.98; G 4.25; V 4.18; L 3.48; F 4.64; I 4.3; P 4.44; C 3.8; E 4.83

Reference: the supplement of paper PMC10567573
